Settings: Bacillus amyloliquefaciens, Thermal, DSC, Potassium acetate 50 mM, reversible: yes, whole UniProt chain shown; for unfolding free energy: 25 °C

B1: Ribonuclease wild type, P00648 (protein)
chain: MMKMEGIALKKRLSWISVCLLVLVSAAGMLFSTAAKTETSSHKAHTEAQVINTFDGVADYLQTYHKLPDNYITKSEAQALGWVASKGNLADVAPGKSIGGDIFSNREGKLPGKSGRTWREADINYTSGFRNSDRILYSSDWLIYKTTDHYQTFTKIR
For B1, the Tm (pH 2) was 24 °C, the “unfolding enthalpy (calorimetric)” value (pH 2) was 345 kJ/mol and the Tm (pH 2.5) was 31.6 °C. The “unfolding enthalpy (calorimetric)” value (pH 2.5) was 395 kJ/mol, the unfolding free energy (pH 3) was 18.4 kJ/mol and the unfolding free energy (pH 3.5) was 28.4 kJ/mol. For the same protein, the Tm (pH 3.5) was 46.7 °C, the “unfolding enthalpy (calorimetric)” value (pH 3.5) was 497 kJ/mol and the unfolding free energy (pH 4) was 34 kJ/mol. For the same protein, the Tm (pH 4) was 50.5 °C, the “unfolding enthalpy (calorimetric)” value (pH 4) was 523 kJ/mol and the unfolding free energy (pH 4.5) was 37.7 kJ/mol. The Tm (pH 4.5) was 53 °C, the “unfolding enthalpy (calorimetric)” value (pH 4.5) was 541 kJ/mol and the unfolding free energy (pH 5) was 39.1 kJ/mol. For the same protein, the Tm (pH 5) was 53.9 °C and the “unfolding enthalpy (calorimetric)” value (pH 5) was 546 kJ/mol.
